Assay results published in paper PMC8403554 (Cell, 2019).

B2: tetrameric βI-tryptase (insect cells) (enzyme)
chain: not shown

Key:
[1] = target: human βI-tryptase monomer (Homo sapiens, beta-I allele of TPSAB1, UniProt Q15661); assay: SPR
[2] = target: the molecule itself; assay: SEC
[3] = target: B2; assay: crystal structure

human βI-tryptase monomer, sequence (Q15661 31-275): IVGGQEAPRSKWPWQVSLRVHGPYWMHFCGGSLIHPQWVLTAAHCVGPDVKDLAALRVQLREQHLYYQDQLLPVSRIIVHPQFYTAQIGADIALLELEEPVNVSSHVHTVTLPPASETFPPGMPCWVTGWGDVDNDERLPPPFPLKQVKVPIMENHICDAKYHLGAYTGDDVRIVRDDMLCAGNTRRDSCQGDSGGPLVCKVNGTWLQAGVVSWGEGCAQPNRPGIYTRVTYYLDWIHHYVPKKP

B1: humanized 31A.v11 IgG4 anti-tryptase antibody (antibody, V domains shown)
VH: EVQLVESGGGLVQPGGSLRLSCAASGFTFSDYGMVWVRQAPGKGLEWVAFISSGSSTVYYADTMKGRFTISRDNSKNTLYLQMNSLRAEDTAVYYCTRRNYDDWYFDVWGQGTLVTVSS
VL: DIQMTQSPSSLSASVGDRVTITCSASSSVTYMYWYQQKPGKSPKPWIYRTSDLASGVPSRFSGSGSGTDFTLTISSLQPEDFATYYCQHYHSYPLTFGQGTKVEIK
[1]
  fold improvement in binding affinity (Kd) over the parental 31A clone: ~10 fold

## B2
[2]
  stoichiometry N: 4

B3: soybean trypsin inhibitor (natural protein, UniProt P01070 25-205, looked up)
chain: DFVLDNEGNPLENGGTYYILSDITAFGGIRAAPTGNERCPLTVVQSRNELDKGIGTIISSPYRIRFIAEGHPLSLKFDSFAVIMLCVGIPTEWSVVEDLPEGPAVKIGENKDAMDGWFRLERVSDDEFNNYKLVFCPQQAEDDKCGDIGISIDHDDGTRRLVVSKNKPLVVQFQKLDKESL
[3]
  binding result: binds
